Columns and labels:
HLA-A*02:01 = target: T1, HLA-A*02:01 (Homo sapiens, UniProt P04439, D140Y/D185E/D98H/E176V/E277Q/G131W/G231S/I119V/I121R/I166T/I218V/L300P/L318F/N151K/N90K/P208A/P217A/Q86G/Q94H/R138H/R169H/T345S); type: cell-based; settings: ETV* (HLA-A*68:02) and SRY* (HLA-B*27) controls
T1 construct: expressed in transfected cells; host or cells: HeLaM-HLA-ABC-KO
Experimental: (g) Dose response curves of IFN-γ treated HeLaM and HeLaM-HLA-ABC^KO cells treated −/+100 nM TAPBPR with increasing concentrations of ETVSK*QSNV for 15 min at 37° C. Line graphs show MFI−/+s.e.m from three independent experiments. […] (h) Histograms of the typical fluorescent peptide binding observed using flow cytometry. (i) Bar graphs showing the MFI of fluorescent peptide binding to HeLaM HLA-ABC^KO+A2−/+s.e.m from two independent experiments with duplicates. ***P≤0.001, ****P≤0.0001, n/s not significant, using unpaired two-tailed t-test.
(§1) Target cell lines were seeded at 25,000-30,000 cells/well in 12-well plates and stimulated with IFN-γ. Following the stimulation period, the cells were washed 3 times with 1×PBS and incubated with 300 μL pre-warmed opti-MEM (Thermo Fisher Scientific, UK). In case the peptide binding was done in the presence of recombinant TAPBPR, the cells were then treated with or without recombinant TAPBPR (100 nM for HLA-A*68:02 or 1 μM for HLA-A*02:01). After 15 min, the desired TAMRA-labelled peptide was added to the cells and incubated at 37° C. (15 min for HLA-A*68:02 or 60 min for HLA-A*02:01). In case the peptide binding was facilitated by over-expressed TAPBPR, the labelled peptide was directly added to the cells, without using recombinant TAPBPR. […] The level of bound peptide/cell was determined by flow cytometry, using the YelFL1 channel (Cytek).

[1] = target: T2, HLA-A*02:01 naturally expressed on MCF-7 (Homo sapiens, UniProt P04439, D140Y/D185E/D98H/E176V/E277Q/G131W/G231S/I119V/I121R/I166T/I218V/L300P/L318F/N151K/N90K/P208A/P217A/Q86G/Q94H/R138H/R169H/T345S); experiment: Fluorescent peptide loading onto MCF-7 cells by soluble TAPBPR; type: cell-based
T2 construct: onto HLA-A*02:01 naturally expressed on MCF-7, a breast cancer cell line; endogenous in cells
Experimental: (YLL) followed by staining with the TCR-like mAb L1 specific for […]/HLA-A2 complexes. (6d) The MFI of L1 binding to MCF-7 cells −/+SD from three independent experiments. (6e) Bar graphs show T cell activity measured by IFN-γ secretion in fluorospot assays of a HLA-A2 restricted […] specific CD8+ T cell line when incubated with MCF-7 target cells as treated in FIG. 6b with the exception that non-fluorescent […] peptide at 100 pM was used. […] Error bars−/+SD. Note: In FIGS. 6a, 6b, & 6e IFNγ treated cells were used.
as §1

EL4 cells = experiment: Binding of soluble human TAPBPR to EL4 cells (PeTe-4); parameters: species or system murine; settings: 1 μM, 15 min, 37° C.
HLA-A*68:02 = target: T3, HLA-A*68:02 (Homo sapiens, UniProt P04439, A269V/D140Y/D185E/E176V/E277Q/E87N/F33Y/G231S/I121R/I166T/I218V/L180W/L300P/L318F/N151K/P208A/P217A/Q86R/R138H/R169H/S129P/T345S/V36M); experiment: Fluorescent peptide binding to HeLaM cells treated with exogenous soluble TAPBPR; type: cell-based
T3 construct: HLA-A68 (MHC class I) expressed on HeLa; endogenous in cells; host or cells: HeLaM and derivatives (TAPBPR-KO with or without TAPBPR/tapasin constructs, +Her2, Her2-KO, +PDL1, pD-GFP); in some arms HeLaM-HLA-ABC-KO re-expressing HLA-A*68:02
Experimental: Target cell lines were seeded at 25,000-30,000 cells/well in 12-well plates and stimulated with IFN-γ. Following the stimulation period, the cells were washed 3 times with 1×PBS and incubated with 300 μL pre-warmed opti-MEM (Thermo Fisher Scientific, UK). In case the peptide binding was done in the presence of recombinant TAPBPR, the cells were then treated with or without recombinant TAPBPR (100 nM for HLA-A*68:02 or 1 μM for HLA-A*02:01). After 15 min, the desired TAMRA-labelled peptide was added to the cells and incubated at 37° C. (15 min for HLA-A*68:02 or 60 min for HLA-A*02:01). In case the peptide binding was facilitated by over-expressed TAPBPR, the labelled peptide was directly added to the cells, without using recombinant TAPBPR. Following the peptide treatment, the cells were washed three times in 1×PBS and harvested. The level of bound peptide/cell was determined by flow cytometry, using the YelFL1 channel (Cytek).
We next asked whether the exogenous TAPBPR bound to surface MHC class I molecules was capable of peptide exchange similarly to the membrane anchored version. Following incubation of cells for 15 min at 37° C. in the presence or absence of 100 nM exogenous TAPBPR, cells were treated with or without 10 nM fluorescent peptide for an additional 15 mins.

EL4 tumour cells = experiment: OT1 T cell killing of EL4 tumour cells; type: cell-based, murine; settings: 1 μM TAPBPR, 1 nM SIINFEKL
Experimental: Histograms are representative of three independent experiments. (19d) Bar graphs show the MFI of 25-D1.16−/+SD from three independent experiments. (19e) OT1 killing of EL4 cells treated −/+1 μM soluble TAPBPR^WT or TAPBPR^TN5, followed by incubation with 1 nM […] peptide. Error bars−/+s.e.m from triplicate wells. Data is representative of three independent experiments. Note: surface expressed H-2K^b are relatively more peptide receptive compared to human MHC I molecules. […] As OT1 T cells are highly efficient cytotoxic cells, killing 80-100% of targets after 1-4 hours, we decreased the concentration of […] used in these experiments to 1 nM in order to differentiate between TAPBPR-mediated and background peptide binding, otherwise we would not observe an additive effect of soluble TAPBPR on target cell killing.
Although the results above provide indication that soluble TAPBPR could be utilised to decorate target cells with immunogenic peptides and enhance T cell responses against tumours, we next determined whether this could result in enhanced killing of tumour cells. We assessed killing of murine EL4 tumour cells by OT1 T cells in the presence of human TAPBPR and very low concentrations of […] peptide.

[2] = target: surface GFP on HeLaM cells (Aequorea victoria, UniProt P42212, F64L/H231L/S65T)
Experimental: (B) Histograms and (C) Bar graphs compare the binding of recombinant soluble TAPBPR (TAPBPR) with recombinant TAPBPR-fused to a nanobody specific for GFP (TAPBPR-GFPNB) to HeLaM cells (left) and HeLaM-pD-GFP cells (right). Histograms show the level of TAPBPR when the two cell lines were incubated with 100 nM protein while bar graphs summarise results using a range of concentrations of protein (0.001-100 nM). […] Each bar represents mean and standard deviation of three independent experiments.

B1: soluble TAPBPR^WT: secreted His-tagged luminal domain of human TAPBPR, lacking transmembrane domain and cytoplasmic tail; SEQ ID NO: 2 (protein)
chain: KPHPAEGQWRAVDVVLDCFLVKDGAHRGALASSEDRARASLVLKQVPVLDDGSLEDFTDFQGGTLAQDDPPIIFEASVDLVQIPQAEALLHADCSGKEVTCEISRYFLQMTETTVKTAAWFMANVQVSGGGPSISLVMKTPRVAKNEVLWHPTLNLPLSPQGTVRTAVEFQVMTQTQSLSFLLGSSASLDCGFSMAPGLDLISVEWRLQHKGRGQLVYSWTAGQGQAVRKGATLEPAQLGMARDASLTLPGLTIQDEGTYICQITTSLYRAQQIIQLNIQASPKVRLSLANEALLPTLICDIAGYYPLDVVVTWTREELGGSPAQVSGASFSSLRQSVAGTYSISSSLTAEPGSAGATYTCQVTHISLEEPLGASTQVVPPERR
modifications: His tag; TAPBPR luminal domain (mature sequence without 21 aa leader sequence)
binding of peptides specific for other MHC class I molecules onto HLA-A2 (HLA-A*02:01): did not promote the binding | loading of fluorescent derivatives of tumour antigens IMDQVPFSV, […], LLGRNSFEV and RLLQETELV ([1]; 1 μM TAPBPR 15 min, 10 nM peptide 60 min): significantly enhanced the loading | association of YLLEK*LWRL and NLVPK*VATV onto HLA-A2 ([1]; versus peptide alone or TAPBPR^TN5): enhanced the association | binding to EL4 cells (EL4 cells): bound to EL4 cells | binding of exogenous fluorescent peptides ETVSK*QSNV and YVVPKVAK*V to HeLaM (HLA-A*68:02; 100 nM exogenous TAPBPR 15 min, then 10 nM peptide 15 min): significant enhancement in the binding of exogenous fluorescent peptides | exogenous peptide binding over increasing ETVSK*QSNV concentrations (HLA-A*68:02; -/+100 nM TAPBPR, 15 min): enhanced exogenous peptide binding to cells over a wide range of peptide concentrations | OT1 cytotoxic T cell killing of peptide-pulsed EL4 target cells (EL4 tumour cells): significant enhancement in killing | binding to either of the HeLaM cell lines ([2]; 10 nM recombinant protein): did not exhibit any binding | binding to HeLaM cells (lacking GFP) ([2]; 100 nM recombinant protein): bound at low levels

— patent US12397036B2, “Peptide exchange protein” (Cambridge Enterprise Limited, priority 2018, dated 2025)
